Earlier results on 1 substance are cited in PMC6273919.

The series addresses NF-kappa-B p50 (Homo sapiens) (UniProt P19838).
UniProt P19838, sequence (P19838 1-433): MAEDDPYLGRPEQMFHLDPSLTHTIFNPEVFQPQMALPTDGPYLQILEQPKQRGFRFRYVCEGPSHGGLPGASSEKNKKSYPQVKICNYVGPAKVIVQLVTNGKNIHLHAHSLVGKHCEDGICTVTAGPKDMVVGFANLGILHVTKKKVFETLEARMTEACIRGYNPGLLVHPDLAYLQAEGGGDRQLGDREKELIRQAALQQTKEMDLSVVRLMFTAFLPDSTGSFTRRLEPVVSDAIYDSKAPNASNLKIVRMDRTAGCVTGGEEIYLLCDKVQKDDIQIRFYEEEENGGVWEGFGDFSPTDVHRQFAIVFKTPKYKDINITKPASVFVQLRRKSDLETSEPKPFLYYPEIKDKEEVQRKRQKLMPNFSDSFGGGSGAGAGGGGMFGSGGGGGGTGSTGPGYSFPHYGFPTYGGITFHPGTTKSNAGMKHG

Regarding Melittin (from UniProt P01501), the Kd was 12 nM.
